Laboratory results: US20160272683A1 (Novo Nordisk, published 2016)
Numbered stars: 1 amine (or outer) side, 2 acyl side, 3 side chain; on linkers, the order of the positions; unused ones are H or OH. * marks the point of attachment. C20 diacid = O=C(O)CCCCCCCCCCCCCCCCCCC(=O)*; C18 diacid = O=C(O)CCCCCCCCCCCCCCCCC(=O)*; γGlu = O=C(O)[C@H](CCC(=O)[*:2])N[*:1]

Biological target: T1, human amylin receptor (human calcitonin receptor + human RAMP3) (human) (UniProt P30988)
T1 sequence (looked up) 1: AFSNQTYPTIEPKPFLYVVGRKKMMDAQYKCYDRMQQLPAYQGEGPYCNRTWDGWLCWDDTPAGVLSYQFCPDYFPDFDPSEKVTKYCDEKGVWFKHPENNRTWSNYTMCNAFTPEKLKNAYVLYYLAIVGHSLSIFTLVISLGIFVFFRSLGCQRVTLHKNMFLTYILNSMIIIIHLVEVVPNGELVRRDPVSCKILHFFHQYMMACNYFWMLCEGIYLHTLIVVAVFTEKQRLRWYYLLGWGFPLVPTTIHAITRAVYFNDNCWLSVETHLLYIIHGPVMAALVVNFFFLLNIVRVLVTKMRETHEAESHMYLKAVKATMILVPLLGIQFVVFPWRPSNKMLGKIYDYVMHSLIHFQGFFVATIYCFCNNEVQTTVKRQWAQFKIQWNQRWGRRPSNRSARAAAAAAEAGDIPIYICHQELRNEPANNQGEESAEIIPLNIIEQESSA
T1 sequence (looked up) 2: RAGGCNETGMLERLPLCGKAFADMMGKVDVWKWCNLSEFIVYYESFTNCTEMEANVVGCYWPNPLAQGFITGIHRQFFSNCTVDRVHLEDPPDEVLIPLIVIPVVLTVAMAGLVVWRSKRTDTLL
Assay: whole-cell competition vs 125I-rat amylin (Assay Va)

Binder	IC50
{C18 diacid-γGlu}-ASEVSTAVVGRLSAELHEVATLPRTETGSGSP-NH2 (SMILES CC(C)C[C@H](NC(=O)[C@H](CCCNC(=N)N)NC(=O)CNC(=O)[C@@H](NC(=O)[C@@H](NC(=O)[C@H](C)NC(=O)[C@@H](NC(=O)[C@H](CO)NC(=O)[C@@H](NC(=O)[C@H](CCC(=O)O)NC(=O)[C@H](CO)NC(=O)[C@H](C)NC(=O)CC[C@H](NC(=O)CCCCCCCCCCCCCCCCC(=O)O)C(=O)O)C(C)C)[C@@H](C)O)C(C)C)C(C)C)C(=O)N[C@@H](CO)C(=O)N[C@@H](C)C(=O)N[C@@H](CCC(=O)O)C(=O)N[C@@H](CC(C)C)C(=O)N[C@@H](Cc1c[nH]cn1)C(=O)N[C@@H](CCC(=O)O)C(=O)N[C@H](C(=O)N[C@@H](C)C(=O)N[C@H](C(=O)N[C@@H](CC(C)C)C(=O)N1CCC[C@H]1C(=O)N[C@@H](CCCNC(=N)N)C(=O)N[C@H](C(=O)N[C@@H](CCC(=O)O)C(=O)N[C@H](C(=O)NCC(=O)N[C@@H](CO)C(=O)NCC(=O)N[C@@H](CO)C(=O)N1CCC[C@H]1C(N)=O)[C@@H](C)O)[C@@H](C)O)[C@@H](C)O)C(C)C) [[N-terminal(C18 diacid-gGlu), des1, 5V, 9V, 10V, 20V, 30S, 31G]mimylin]	1.65 nM
{C18 diacid-γGlu}-ASELTTAVLGRLEAELHELTTLPRTETGTGTP-NH2 [[N-terminal(C18 diacid-gGlu), des1, 6T, 9V, 14E, 21T, 30T, 31G, 32T]mimylin]	19.7 nM
{C20 diacid-γGlu}-ASELSTAALGRLSAELHELSTYPRTETGSGSY-NH2 (SMILES CC(C)C[C@H](NC(=O)[C@H](C)NC(=O)[C@H](C)NC(=O)[C@@H](NC(=O)[C@H](CO)NC(=O)[C@H](CC(C)C)NC(=O)[C@H](CCC(=O)O)NC(=O)[C@H](CO)NC(=O)[C@H](C)NC(=O)CC[C@H](NC(=O)CCCCCCCCCCCCCCCCCCC(=O)O)C(=O)O)[C@@H](C)O)C(=O)NCC(=O)N[C@@H](CCCNC(=N)N)C(=O)N[C@@H](CC(C)C)C(=O)N[C@@H](CO)C(=O)N[C@@H](C)C(=O)N[C@@H](CCC(=O)O)C(=O)N[C@@H](CC(C)C)C(=O)N[C@@H](Cc1c[nH]cn1)C(=O)N[C@@H](CCC(=O)O)C(=O)N[C@@H](CC(C)C)C(=O)N[C@@H](CO)C(=O)N[C@H](C(=O)N[C@@H](Cc1ccc(O)cc1)C(=O)N1CCC[C@H]1C(=O)N[C@@H](CCCNC(=N)N)C(=O)N[C@H](C(=O)N[C@@H](CCC(=O)O)C(=O)N[C@H](C(=O)NCC(=O)N[C@@H](CO)C(=O)NCC(=O)N[C@@H](CO)C(=O)N[C@@H](Cc1ccc(O)cc1)C(N)=O)[C@@H](C)O)[C@@H](C)O)[C@@H](C)O) [[N-terminal(C20 diacid-gGlu), des1, 21S, 23Y, 30S, 31G, 33Y]mimylin]	0.186 nM
{C20 diacid-γGlu}-ASELSTAALGKLSAELHELATYPKTETGSGSY-NH2 (SMILES CC(C)C[C@H](NC(=O)[C@H](C)NC(=O)[C@H](C)NC(=O)[C@@H](NC(=O)[C@H](CO)NC(=O)[C@H](CC(C)C)NC(=O)[C@H](CCC(=O)O)NC(=O)[C@H](CO)NC(=O)[C@H](C)NC(=O)CC[C@H](NC(=O)CCCCCCCCCCCCCCCCCCC(=O)O)C(=O)O)[C@@H](C)O)C(=O)NCC(=O)N[C@@H](CCCCN)C(=O)N[C@@H](CC(C)C)C(=O)N[C@@H](CO)C(=O)N[C@@H](C)C(=O)N[C@@H](CCC(=O)O)C(=O)N[C@@H](CC(C)C)C(=O)N[C@@H](Cc1c[nH]cn1)C(=O)N[C@@H](CCC(=O)O)C(=O)N[C@@H](CC(C)C)C(=O)N[C@@H](C)C(=O)N[C@H](C(=O)N[C@@H](Cc1ccc(O)cc1)C(=O)N1CCC[C@H]1C(=O)N[C@@H](CCCCN)C(=O)N[C@H](C(=O)N[C@@H](CCC(=O)O)C(=O)N[C@H](C(=O)NCC(=O)N[C@@H](CO)C(=O)NCC(=O)N[C@@H](CO)C(=O)N[C@@H](Cc1ccc(O)cc1)C(N)=O)[C@@H](C)O)[C@@H](C)O)[C@@H](C)O) [[N-terminal(C20 diacid-gGlu), des1, 12K, 23Y, 25K, 30S, 31G, 33Y]mimylin]	0.588 nM
